{"source": "patent US20240360242A1", "about": "(KISOJI BIOTECHNOLOGY, published 2024)", "binders": {"B1": {"name": "KD006 (antibody, human IgG1, V domains shown)", "VH": "QVQLQESGGGLVQAGNSLRLSCVASVRTFSTKAMGWFRQAPGKEREFTAAISESGSTYYADSVKDRFTISRDNVKNTVYLQMNSLKPEDTAVYYCGVKWYSGSFDDTRSYDYWGQGTQVTVSS", "notes": "also called anti-TROP2 sdAb KD006"}}, "key": {"recombinant human EpCAM": {"target": "T1, recombinant human EpCAM (human, UniProt P16422 24-265)", "T1 construct": "also called rhEpCAM", "T1 sequence (looked up)": "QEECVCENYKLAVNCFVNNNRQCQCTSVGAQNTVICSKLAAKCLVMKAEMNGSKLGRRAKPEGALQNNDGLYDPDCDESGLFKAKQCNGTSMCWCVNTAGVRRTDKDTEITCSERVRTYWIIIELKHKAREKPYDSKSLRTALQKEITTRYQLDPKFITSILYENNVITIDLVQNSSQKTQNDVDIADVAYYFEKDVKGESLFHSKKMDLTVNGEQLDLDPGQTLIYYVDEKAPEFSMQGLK", "assay": "ELISA"}, "[1]": {"target": "T2, recombinant human IGFBP-1 (human, UniProt P08833 26-259)", "T2 construct": "also called rhIGFB-1", "T2 sequence (looked up)": "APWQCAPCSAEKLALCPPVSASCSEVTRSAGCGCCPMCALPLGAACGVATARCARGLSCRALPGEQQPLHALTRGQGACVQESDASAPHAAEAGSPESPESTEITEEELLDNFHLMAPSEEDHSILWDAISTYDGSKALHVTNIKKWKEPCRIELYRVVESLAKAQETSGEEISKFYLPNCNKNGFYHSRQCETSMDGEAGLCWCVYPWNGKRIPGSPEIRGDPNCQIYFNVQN", "assay": "ELISA"}, "[2]": {"target": "T3, TROP2 delta 27-56 on HEK cells (human, UniProt P09758 1-323)", "T3 construct": "Human TROP2 with residues 27-56 deleted, transiently transfected into HEK cells; also called TROP2 with 27-56 regions truncated", "T3 chain": "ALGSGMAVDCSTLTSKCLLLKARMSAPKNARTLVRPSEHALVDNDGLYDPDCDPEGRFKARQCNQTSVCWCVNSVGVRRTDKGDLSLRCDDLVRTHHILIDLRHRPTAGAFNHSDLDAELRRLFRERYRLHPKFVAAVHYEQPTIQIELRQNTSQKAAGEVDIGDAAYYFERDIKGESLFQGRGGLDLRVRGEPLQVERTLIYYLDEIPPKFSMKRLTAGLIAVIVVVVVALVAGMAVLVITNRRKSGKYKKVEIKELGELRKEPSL", "assay": "flow cytometry, 100 nM antibody, transiently transfected HEK cells, APC anti-human Fc", "method": "(§1) To determine the effect of TROP2 truncations on the binding ability of anti-TROP2 sdAbs, the HEK parental cells were transiently transfected with human TROP2 mutants by lipofectamine. 24 hours after transfection, cells were collected and stained with anti-TROP2 antibodies (FIG. 13A and FIG. 13B). In brief, 1×10⁵ cells were incubated with an Fc receptor blocking antibody (1/100 dilution) for 10 minutes at room temperature. Anti-TROP2 antibodies were diluted in FACS staining buffer to 100 nM and added and incubated with cells for 30 minutes on ice. After washing three times with FACS staining buffer, APC-conjugated secondary antibodies recognizing the human Fc region (Biolegend, Cat #410712) were mixed with cells. After staining for 30 minutes, cells were washed three times, followed by resuspension into 100 μL of 7-Amino-Actinomycin D (7-AAD) solution (BD Biosciences, Cat #559925)."}, "HEK-TROP2 Δ27-36": {"target": "T4, HEK-TROP2 Δ27-36", "T4 construct": "also called TROP2 delta 27-36", "T4 membrane protein on transfected HEK cells": "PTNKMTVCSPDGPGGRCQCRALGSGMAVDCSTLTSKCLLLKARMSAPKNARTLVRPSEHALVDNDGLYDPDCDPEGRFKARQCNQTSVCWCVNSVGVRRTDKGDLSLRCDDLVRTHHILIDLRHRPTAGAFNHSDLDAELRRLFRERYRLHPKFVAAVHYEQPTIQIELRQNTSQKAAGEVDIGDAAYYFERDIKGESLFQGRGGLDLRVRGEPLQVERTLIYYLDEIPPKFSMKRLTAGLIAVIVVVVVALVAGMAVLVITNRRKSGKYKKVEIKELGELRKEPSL", "assay": "flow cytometry, 100 nM antibody, transiently transfected HEK cells, APC anti-human Fc", "method": "as §1"}, "HEK-TROP2 Δ27-44": {"target": "T5, HEK-TROP2 Δ27-44", "T5 construct": "also called TROP2 delta 27-44", "T5 membrane protein on transfected HEK cells": "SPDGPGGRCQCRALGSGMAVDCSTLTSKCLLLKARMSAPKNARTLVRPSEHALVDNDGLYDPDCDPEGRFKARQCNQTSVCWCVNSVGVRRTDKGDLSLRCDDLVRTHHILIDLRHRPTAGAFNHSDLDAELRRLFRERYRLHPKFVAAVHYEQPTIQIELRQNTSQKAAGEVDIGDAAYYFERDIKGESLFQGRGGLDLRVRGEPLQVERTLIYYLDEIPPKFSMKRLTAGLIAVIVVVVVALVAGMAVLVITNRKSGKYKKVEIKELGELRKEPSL", "assay": "flow cytometry, 100 nM antibody, transiently transfected HEK cells, APC anti-human Fc", "method": "as §1"}, "[3]": {"target": "T6, recombinant human TROP2 extracellular domain (aa 1-274) comprising His tag (human, UniProt P09758 27-274)", "T6 construct": "Used here for all assays on recombinant human TROP2 (ELISA, immunoblot, SPR, crystal), although only some of them name the catalogue number; also called human recombinant TROP2; recombinant human TROP2 protein; not shown: His tag", "T6 sequence": "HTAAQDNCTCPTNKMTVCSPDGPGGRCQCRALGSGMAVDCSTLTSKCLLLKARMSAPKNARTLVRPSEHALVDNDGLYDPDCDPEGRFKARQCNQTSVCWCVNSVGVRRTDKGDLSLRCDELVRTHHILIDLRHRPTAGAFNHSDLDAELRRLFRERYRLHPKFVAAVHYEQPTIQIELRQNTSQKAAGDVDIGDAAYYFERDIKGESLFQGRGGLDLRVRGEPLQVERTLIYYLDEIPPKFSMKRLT", "assay": "competitive ELISA on coated recombinant human TROP2, competitor 1428.6 pM His-tagged KD006, anti-His-HRP secondary Ab", "method": "The epitope characterization was assessed by competitive ELISA (FIG. 8 and FIG. 9). Microplates were coated with human recombinant TROP2 at 4° C. overnight. After washing, plates were blocked with blocking buffer (PBS+2% BSA), for 1 hour at room temperature. Meanwhile, the dilution for anti-TROP2 VHH sdAbs was prepared with blocking buffer making two different dilutions depending on the tag. For sdAbs with His tag, the antibody was diluted to 28571.4 pM. For sdAbs without tag, antibodies were serially diluted from 2857142.9 pM to 0.29 pM (8 dilutions, 10×). […] After washing two times, the mixed antibody contents were added into the wells and the plates were incubated for 2 hours at room temperature. The HRP-conjugated anti-6× His was diluted to 1:5000 and added to the wells after washing three times. Any unbound conjugate was removed by washing after 1 hour incubation at room temperature, and the colorimetric reaction was performed by adding the same volume of Supersignal ELISA Pico Luminol/Enhancer and SuperSignal ELISA Pico Stable Peroxide Solution and detected on SpectraMax i3x Microplate Reader. Positive and negative controls were included in each plate."}}}
{"binder": "B1", "values": [{"measurement": "binding result", "setting": "recombinant human EpCAM", "value": "no binding"}, {"measurement": "binding result", "setting": "[1]", "value": "no binding"}, {"measurement": "binding result", "setting": "[2]", "value": "binds"}, {"measurement": "binding result", "setting": "HEK-TROP2 Δ27-36", "value": "binds"}, {"measurement": "binding result", "setting": "HEK-TROP2 Δ27-44", "value": "binds"}, {"measurement": "IC50 (read off the curve)", "setting": "[3]", "value": "~4", "unit": "nM"}]}
